Measurements published in the supplement of paper PMC7877785.
± gives the uncertainty stated by the source.

Test: self-splicing fitness, log relative to wild type (ln ratio); higher = more splicing; Tetrahymena group I intron in knt gene, E. coli kanamycin selection, DiMSum; sequences stand for … in CUCUCU…GGAGGGAAAAGUUAUCAGGCAUGCACCUGGUAGCUAGUCUUUAAACCAAUAGAUUGCAUCGGUUUAAAAGGCAAGACCGUCAAAUUGCGGGAAAGGGGUCAACAGCCGUUCAGUACCAAGUCUCAGGGGAAACUUUGAGAUGGCCUUGCAAAGGGUAUGGUAAUAAGCUGACGGACAUGGUCCUAACCACGCAGCCAAGUCCUAAGUCAACAGAUCUUCUGUUGAUAUGGAUGCAGUUCACAGACUAAAUGUCGGUCGGGGAAGAUGUAUUCUUCUCAUAAGAUAUAGUCGGACCUCUCCUUAAUGGGAGCUAGCGGAUGAAGUGAUGCAACACUGGAGCCGCUGGGAACUAAUUUGUAUGCGAAAGUAUAUUGAUUAGUUUUGGAGUACUCGUGGUCG
Outline: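 A randomised library covering all eight P1ex-region intron nucleotides was built with the intron in the knt kanamycin-resistance gene on pET-22b(+) and held in E. coli BL21(DE3). Cells were grown overnight at 37°C or 30°C on LB agar, with or without 25 μg/mL kanamycin, plus 100 μg/mL carbenicillin, 50 μM IPTG and 0.2% rhamnose, and pooled colonies were amplicon-sequenced on an Illumina HiSeq 2500. DiMSum fitness is the error-weighted combination of wild-type-normalised replicate fold changes, kanamycin versus none.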

Sequence	self-splicing fitness (ln) (30 °C)	self-splicing fitness (ln) (37 °C)
GGGGAGCAAUAUUACGAUGA	-2.02 ± 0.3	-2.57 ± 0.37
GGGGAGCAAUAUUACGAUGG	-2.44 ± 0.45	-2.67 ± 0.44
GGGGAGCAAUAUUACGCACG	-1.89 ± 0.17	-1.44 ± 0.24
GGGGAGCAAUAUUACGCCGG		-0.928 ± 0.42
GGGGAGCAAUAUUACGCGGU	-1.99 ± 0.27	
GGGGAGCAAUAUUACGGACA		-1.12 ± 0.2
GGGGAGCAAUAUUACGUAAG	-2.56 ± 0.21	-1.01 ± 0.24
GGGGAGCAAUAUUACGUAAU	-4.07 ± 0.47	-0.557 ± 0.19
GGGGAGCAAUAUUACGUAGU		-1.53 ± 0.37
GGGGAGCAAUAUUACGUCCU	-3.89 ± 0.4	
GGGUAGCAAUAUUACGAAAA	-0.788 ± 0.35	
GGGUAGCAAUAUUACGAACC	-2.05 ± 0.39	
GGGUAGCAAUAUUACGAACG	-0.91 ± 0.08	-0.292 ± 0.1
GGGUAGCAAUAUUACGAGCG	-1.3 ± 0.12	-0.426 ± 0.12
GGGUAGCAAUAUUACGAGGA	-2.14 ± 0.22	-2.74 ± 0.3
GGGUAGCAAUAUUACGAUGA	-0.862 ± 0.13	-0.927 ± 0.14
GGGUAGCAAUAUUACGAUUU	-0.0881 ± 0.1	-0.476 ± 0.099
GGGUAGCAAUAUUACGCACG	-2.15 ± 0.26	0.541 ± 0.23
GGGUAGCAAUAUUACGCAGG		-2.34 ± 0.25
GGGUAGCAAUAUUACGCCGG	-4.18 ± 0.39	-2.03 ± 0.24
GGGUAGCAAUAUUACGCCUA	0.113 ± 0.12	-0.00829 ± 0.14
GGGUAGCAAUAUUACGCCUU	-1.56 ± 0.18	-2.07 ± 0.21
GGGUAGCAAUAUUACGCGCG	-0.435 ± 0.11	0.558 ± 0.15
GGGUAGCAAUAUUACGCGUU	-0.304 ± 0.091	-0.0887 ± 0.12
GGGUAGCAAUAUUACGCUCU	-3.13 ± 0.34	

Sequence	self-splicing fitness (ln) (30 °C)	self-splicing fitness (ln) (37 °C)
GGGUAGCAAUAUUACGCUUG	-0.33 ± 0.1	-0.241 ± 0.15
GGGUAGCAAUAUUACGGAAA	-1.82 ± 0.34	0.517 ± 0.27
GGGUAGCAAUAUUACGGAGC	-1.42 ± 0.14	-0.425 ± 0.17
GGGUAGCAAUAUUACGGUUU	-0.176 ± 0.068	0.138 ± 0.099
GGGUAGCAAUAUUACGUAUA	-1.41 ± 0.14	-0.205 ± 0.15
GGGUAGCAAUAUUACGUCAA	-0.501 ± 0.13	-0.61 ± 0.21
GGGUAGCAAUAUUACGUCUC	-0.431 ± 0.28	0.223 ± 0.43
GGGUAGCAAUAUUACGUGAC	-2.07 ± 0.17	-2.27 ± 0.26
GGGUAGCAAUAUUACGUUGU	-2.46 ± 0.19	-1.14 ± 0.17
GGGUAGCAAUAUUACGUUUG	-1.9 ± 0.14	-1.35 ± 0.21
GGUAAGCAAUAUUACGACCG	-1.05 ± 0.16	0.0485 ± 0.22
GGUAAGCAAUAUUACGACGU	0.151 ± 0.1	0.677 ± 0.13
GGUAAGCAAUAUUACGACUU	-0.311 ± 0.15	0.0617 ± 0.18
GGUAAGCAAUAUUACGAGCC		-2.76 ± 0.34
GGUAAGCAAUAUUACGAUCC		-1.74 ± 0.42
GGUAAGCAAUAUUACGAUCU	-0.636 ± 0.1	1.04 ± 0.13
GGUAAGCAAUAUUACGAUUU	-0.236 ± 0.1	-0.0101 ± 0.14
GGUAAGCAAUAUUACGCACA	-0.755 ± 0.12	0.101 ± 0.15
GGUAAGCAAUAUUACGCCGA	-2.95 ± 0.43	-0.926 ± 0.25
GGUAAGCAAUAUUACGCGUA	-0.32 ± 0.21	-0.425 ± 0.15
GGUAAGCAAUAUUACGCUGU	-3.25 ± 0.29	-1.65 ± 0.23
GGUAAGCAAUAUUACGGAUA	-3.17 ± 0.25	-1.69 ± 0.13
GGUAAGCAAUAUUACGGCAU	-0.173 ± 0.078	0.827 ± 0.11
GGUAAGCAAUAUUACGGCGG	-2.55 ± 0.24	-0.84 ± 0.18
GGUAAGCAAUAUUACGGCGU	0.139 ± 0.13	-0.0376 ± 0.15

Sequence	self-splicing fitness (ln) (30 °C)	self-splicing fitness (ln) (37 °C)
GGUAAGCAAUAUUACGGGUA	-1.98 ± 0.22	-1.71 ± 0.18
GGUAAGCAAUAUUACGUAGA	-1.56 ± 0.13	-1.54 ± 0.21
GGUAAGCAAUAUUACGUAGC	-0.417 ± 0.41	
GGUAAGCAAUAUUACGUAUC	-3.54 ± 0.23	-1.39 ± 0.45
GGUAAGCAAUAUUACGUAUG	-3.72 ± 0.29	-2.32 ± 0.18
GGUAAGCAAUAUUACGUCGU	-1 ± 0.11	-0.732 ± 0.12
GGUAAGCAAUAUUACGUGGG	-4.06 ± 0.3	-2.36 ± 0.25
GGUAAGCAAUAUUACGUGUA	-1.73 ± 0.078	-0.95 ± 0.086
GGUAAGCAAUAUUACGUUCA	-0.432 ± 0.081	0.0273 ± 0.12
GGUCAGCAAUAUUACGAAUG	-0.0371 ± 0.078	-0.989 ± 0.1
GGUCAGCAAUAUUACGAUAG	-1.37 ± 0.077	0.0315 ± 0.1
GGUCAGCAAUAUUACGCAAC	-0.639 ± 0.11	-0.859 ± 0.17
GGUCAGCAAUAUUACGCAGA		-2.72 ± 0.33
GGUCAGCAAUAUUACGCAUG	-1.15 ± 0.1	-0.079 ± 0.12
GGUCAGCAAUAUUACGCCGC	-2.96 ± 0.26	-2.62 ± 0.36
GGUCAGCAAUAUUACGCGGU	-3.97 ± 0.39	-2.26 ± 0.27
GGUCAGCAAUAUUACGCGUA	-0.325 ± 0.067	-0.158 ± 0.07
GGUCAGCAAUAUUACGCUUC	-1.12 ± 0.14	-0.693 ± 0.24
GGUCAGCAAUAUUACGGACC	-3.67 ± 0.18	-2.08 ± 0.22
GGUCAGCAAUAUUACGGAGA		-1.69 ± 0.28
GGUCAGCAAUAUUACGGAGU	-0.947 ± 0.086	0.0968 ± 0.12
GGUCAGCAAUAUUACGGCAA	0.415 ± 0.065	0.217 ± 0.083
GGUCAGCAAUAUUACGGCAU	-0.469 ± 0.073	0.642 ± 0.1
GGUCAGCAAUAUUACGGCUC	-2.39 ± 0.21	-1.68 ± 0.3
GGUCAGCAAUAUUACGGCUG	-0.728 ± 0.078	-0.439 ± 0.091

Sequence	self-splicing fitness (ln) (30 °C)	self-splicing fitness (ln) (37 °C)
GGUCAGCAAUAUUACGGGGU	-3.37 ± 0.12	-0.793 ± 0.086
GGUCAGCAAUAUUACGGUGG	-4.17 ± 0.28	-1.32 ± 0.13
GGUCAGCAAUAUUACGUCGC	-0.517 ± 0.11	0.282 ± 0.12
GGUCAGCAAUAUUACGUCUC	0.385 ± 0.17	-0.113 ± 0.15
GGUCAGCAAUAUUACGUGCU	-1.5 ± 0.052	-0.199 ± 0.067
GGUCAGCAAUAUUACGUUAA	-1.4 ± 0.099	-0.249 ± 0.088
GGUCAGCAAUAUUACGUUGG	-3.35 ± 0.21	-2.51 ± 0.2
GGUGAGCAAUAUUACGAACG	-0.652 ± 0.13	-1.23 ± 0.17
GGUGAGCAAUAUUACGACUU	-0.531 ± 0.11	0.294 ± 0.12
GGUGAGCAAUAUUACGAUAG	-0.576 ± 0.23	-2.81 ± 0.34
GGUGAGCAAUAUUACGCAUA	-0.925 ± 0.15	-1.55 ± 0.22
GGUGAGCAAUAUUACGCUUU	-2.63 ± 0.4	-3.04 ± 0.47
GGUGAGCAAUAUUACGGCAC	-1.85 ± 0.17	-0.155 ± 0.18
GGUGAGCAAUAUUACGGCAG	-2.25 ± 0.32	
GGUGAGCAAUAUUACGGCUA	-0.0423 ± 0.12	0.0315 ± 0.14
GGUGAGCAAUAUUACGGCUG	-1.06 ± 0.15	-0.543 ± 0.21
GGUGAGCAAUAUUACGGGCA	-1.68 ± 0.17	-0.406 ± 0.17
GGUGAGCAAUAUUACGGUGA	-2.81 ± 0.23	-1.28 ± 0.21
GGUGAGCAAUAUUACGGUGC	-2.09 ± 0.14	-0.734 ± 0.2
GGUGAGCAAUAUUACGGUUG	-3.99 ± 0.37	-2.36 ± 0.25
GGUGAGCAAUAUUACGUAUU	-1.96 ± 0.31	-1.94 ± 0.47
GGUGAGCAAUAUUACGUCAA	-3.58 ± 0.46	-2.78 ± 0.31
GGUGAGCAAUAUUACGUCCG	-1.13 ± 0.21	-0.66 ± 0.29
GGUGAGCAAUAUUACGUCCU	-0.834 ± 0.23	-1.45 ± 0.22
GGUGAGCAAUAUUACGUCGC	-3.57 ± 0.49	
